Legend:
[1] = tested on: Fas on peripheral CD8^+ T-cells; test: Fas expression on stimulated CD8+ T-cells, flow cytometry; format: cell-based, human; conditions: 4 days stimulation
Method: (§1) Apoptosis assay. The percentage of apoptotic cells was determined after 17 h incubation with 50 μM cisplatin or 18 hs exposure to 0.1 μg/ml anti-CD95 mAb (EOS9.1; Pharmingen) by using the TACS annexin-V apoptosis detection kit, according to the manufacturer's instructions (R & D Systems). Fas expression was determined by flow cytometry by using EOS9.1 as a primary Ab and a PE-labeled anti-mouse IgM (R6-60.2; Pharmingen) as a second Ab.
Letal engagement protects CD8^+ T-cells from FasL-induced apoptosis. […] Because ovarian carcinomas express FasL and other lymphocyte-depleting death ligands (Rabinowich et al, J. Clin. Invest. 101:2579-2588 (1998)), the prevalence of FasL expression and its impact on TILs was determined in 42 stage III ovarian carcinoma specimens. Strong FasL immunoreactivity was detected in tumor cells in areas of selected specimens (FIG. 10A), as well as in a proportion of stromal leukocytes. To test whether Letal promotes the generation of activated T-cell subpopulations that are able to resist the pro-apoptotic tumor microenvironment, peripheral CD8^+ T-cells were stimulated for 4 days with CD3/Letal, CD3/CD28, or anti-CD3 alone, and expression of Fas was measured by flow cytometry. […]

[2] = target: T1, NKG2D immunoreceptor (recombinant human NKG2D/Fc chimera) (Homo sapiens, UniProt P26718); test: Binding of recombinant soluble NKG2D-Fc to Letal-transduced cells, flow cytometry; conditions: Letal^+ K562 and Letal^+ SKOV3 cells; 3 μg/ml NKG2D/Fc; anti-human IgG mAb
T1 construct: containing the ectodomain of the immunoreceptor (Phe78 through Val216); purchased R & D Systems
T1 sequence (P26718 78-216): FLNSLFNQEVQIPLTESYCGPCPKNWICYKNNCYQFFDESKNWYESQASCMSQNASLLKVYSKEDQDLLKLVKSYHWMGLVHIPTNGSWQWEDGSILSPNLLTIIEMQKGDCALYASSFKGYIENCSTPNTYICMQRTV
Source text: Constructs and generation of antibodies. SKOV3 and K562 cells were transduced using retroviral vector MIGR1, generously provided by Warren Pear (University of Pennsylvania). Letal or mock transductants expressing equivalent levels of the green fluorescent protein were sorted and cultured by standard procedures. […] Anti-human IgG mAb (G18-145; Pharmingen, San Diego, Calif.) was used to detect the chimerical molecule.
Letal is a ligand of NKG2D expressed in a variety of normal tissues. […] Expression of the Letal protein was confirmed on transduced cells, but not on mocked transductants, by flow cytometry using serum of Letal-immunized mice (FIG. 1D). […] To evaluate the binding of NKG2D to transduced Letal, a recombinant soluble NKG2D-Fc fusion protein was used, containing the ectodomain of the immunoreceptor (Phe78 through Val216). […] Treatment with phospholipase C decreased binding of sNKG2D to Letal^+ K562 cells, although binding was higher than to control cells.

peripheral CD8^+ T-cells = test: Cisplatin-induced apoptosis of pre-stimulated CD8+ lymphocytes, annexin-V; format: cell-based, human; conditions: pre-stimulated 3 days; 50 μM cisplatin for 17 hr
Method: as §1
Cytotoxic chemotherapy can, however, deplete tumor-specific effector T-cells (Lee et al, Nat. Med. 5:677-685 (1999)). Because the glycolytic pathway is implicated in lymphocyte survival (Plas et al, Nat. Immunol. 3:515-521 (2002)), a determination was made as to whether Letal could protect T-cells from early apoptotic death induced by genotoxic drugs.

[3] = tested on: SKOV3 chemoresistant ovarian carcinoma cells; test: NK cell cytotoxicity against Letal+ or control SKOV3 cells, 51Cr release; format: cell-based, human; conditions: IL-15 activated NK cells; Letal^+ versus control SKOV3
Method: GPI-specific phospholipase-C treatment, ^51Cr release and apoptosis assay. Letal^+ and Letal^− A2780 cells were treated with 2 U/ml GPI-specific phospholipase-C (Sigma) at 37° C. for 1 hr. A standard ^51Cr-release assay was performed using 8,000 ^51Cr-labeled targets/well.
For analysis of the NK-dependent anti-tumor immune response, the cytotoxicity of NK cells against Letal^+ or control SKOV3 chemoresistant ovarian carcinoma cells was compared.

B1: Letal: MHC-I related transmembrane ligand for the NKG2D receptor, polypeptide of SEQ ID NO:8; tested as expressed on transduced cells (protein)
chain: GGHSLCFNFTIKSLSRPGQPWCEAQVFLNKNLFLQYNSDNNMVKPLGLLGKKVYATSTWGELTQTLGEVGRDLRMLLCDIKPQIKTSDPSTLQVEMFCQREAERCTGASWQFATNGEKSLLFDAMNMTWTVINHEASKIKETWKKDRGLEKYFRKLSKGDCDHWLREFLGHWEAMPEPTVSPVNASDIHWSSSSLPDRWIILGAFILLVLMGIVLICVWWQNGEWQAGLWPLRTS
**Q.** How did the “T-cells with dramatically reduced Fas expression compared to controls” value [1] turn out when B1 was run?
**A.** 60%

**Q.** What about the “staining by NKG2D-Fc compared with mock-transductants” value [2] of the same molecule?
**A.** markedly stronger staining

**Q.** And the apoptosis after cisplatin (peripheral CD8^+ T-cells)?
**A.** markedly stronger protection

**Q.** What about the “killing of SKOV3 cells by NK effectors” value [3] of the same molecule?
**A.** increased killing

Source: patent US20060247420A1, “Immune cell recptor ligand and immune cell receptor” (priority 2002, published 2006)
